Test results from the DeepSol protein solubility set.

experiment: soluble on expression in E. coli; label from the status in PepcDB or PDB records

**Q.** With “MPKSAKRRASQPTGAETLVVVESPAKARSIQKMLGPGYEVRASLGHVVDLPERSLGVDVERDFAPTYEVKKDKKPVVEELKRAAEGKRLLIATDPDREGEAIGWHVARLLGRDPKEPLRVEFHEITPRVVRQAVEAPRPIDQNLVDAQQARRVLDRLLGYNLSPLLSLEFRKRALSAGRVQSVALRLVVEREEAIEAFRPEEYWVLRGVFAVEGGEAPLVATLHEVEGKRLWTGQGEKEGRLHLASEAEAHALAEALRKGSYRVAQVEVRERRKAPPPPFTTSTLQQAASSRLGYTAARTMRIAQRLYEGVDLPEGTVGLITYMRTDSVRVAPEAVAAAREVIGKAFGPEYLPEAPRAYKNRREGVQDAHEAIRPTDPKRTPESVRPYLSEEEYRLYELIWRRFLASQMRDALYEQTAVTLADLEGRYAFRASGSVLRFEGYLRAWGRDAEEEEEPPVPAVPEGVPARLEEVLEERRFTEPPPRYTDASLVKTMEELGIGRPSTYAPTLETLEKRGYVARKGRTLFPTPLGRQVTAYLRERFPQVVAYEFTARMEERLDEVEEGRVPWPKVVWEFYEPFLGELAQVPKKTCPRCGRPLELKVSRYGQFLGCTGYPECTYTEPLERREAEPIGEACPKCGRPLLRKEGRYGTFIACSGYPECDYTRDDGTPTGHTCPKCGGRVLEKRSRKGRPYYKCENNACDFLSFYPLLEEACPACGWPLVKKGEKALCLNPACPEHEPSLLPAPKEAKKGRSRGKGKPPLAPPKDWEELVPFLPGLSPEERRAVEALARGEALARGEALAEEEARLARRALFKLRMRKGKARKEPVRA” as the sequence, how does the “soluble on expression in E. coli” value read?
**A.** soluble

**Q.** For “MEKQVRVRYAPSPTGHLHIGNARTALFNYLFARHQDGKFIIRIEDTDVKRNVAGGEESQLKYLKWLGMDWDEGVDVGGEFGPYRQTERLDIYKKLYEDLLERGLAYKCYMTEEELEAEREGQIARGETPRYAGNHRDLTEAQVKEFEAEGRIPSIRFRVPADRDYTFKDIVKDEVAFHSNDFGDFVIVKKDGIPTYNFAVAVDDHLMEITHVLRGDDHISNTPKQMMIYEAFGWDIPQFGHMTLIVNESRKKLSKRDESIIQFIEQYKELGYLPEAIFNFIALLGWSPVGEEEIFSQEEFIKMFDAARLSKSPALFDSQKLKWMNNQYMKKQDLDTVVELSLPHLVKAGRIGETLSEQEQAWIRDVIALYHEQMSFGAEIVELSEMFFKDHVDYEEEGQEVLKGEQVPEVLRAFAGQVEALEAMEPAAIKAAIKAVQKETGHKGKNLFMPIRVATTGQTHGPELPNAIALLGKEKVLNRLQKVIG”, which “soluble on expression in E. coli” value is on record?
**A.** soluble

**Q.** With “NKDMNFTIRANYTFSQNVIDYFEENKLPYDYLSVTGKPFNILRGYISEGLFASKEEINTSPDQSGFGTIRPGDIKYRDVNGDGIINEDDKVPLSYSNQLPRMMYGFGGDFQWKDLTVSILFKGSAKVDYYRAGLGNDYGWIPFYNGDLGNVIKLANNPKNRWTPAWYSGTTATENPNAEFPRLSYGKNTNNSQLSSFWRRNGSFLRLQEVSLRYSLKHLPWIKSVGLSSVDLEFVANNLFTIDKVKYFDPEQASANGAVYPIPATYAFQVYLRF” as the sequence, how does the “soluble on expression in E. coli” value read?
**A.** not soluble

**Q.** With “MFARSAQRFSDGDRLEVGGWPVRLKVDGRARRISLRVDRARSEIVALSPTPRRLNEAVAFAQEKAGWIAKQLAALPERMSLAPGGVLRLNDKPFRLEVGAGRARIDGDRIVAPDDANWGLKVIRLAKREALTVLTERTAIHAAALGRPVPSVAIADPKARWGSCRPATSRAPAAIRYSWRLILAPAVVADYVAAHECAHLIEANHGPRFWALCEQLIGDPTPHRAWLRAHAAELHAIGALEHHHHHH” as the sequence, how does the “soluble on expression in E. coli” value read?
**A.** not soluble

**Q.** Which “soluble on expression in E. coli” value does the source give for “MTLYPFPFTTKKQDAESMVDLFSLIKDYLVDQEDGIRHLITWFLNLVMEEEALLQVGAQRYERTDSRKASRNGYKPRTLLTKYGELELLKPQFREFPFETQVFEKYSRVEQAILSAVAESYLQGVSTRRVDKVMTALGVEGISASSVSRITKELDEKVSEFLSKPIEHEIPYLFIDATYLKVRDGLHYENKALFIVSGVRDDGFREILGARLADSEDSLFWQDLFEDLKERGLRGVKLIVSDGHKGIQKAVRESFIGSSWQMCHVHLIRQALKKVQKKKQKEVADKIKEALVDRHKYNDLIRELDKMEYKSAADTLENFQYDVMNYMQFPQSHWRKIRTTNMMERTNKEIKRRTKVVGAFPNQESVLRLVVSILIDINEDWITGNRYIVMEQ” here?
**A.** not soluble

**Q.** For “MASPRANDAPIVLLHGFTGWGREEMLGFKYWGGVRGDIEQWLNDNGYRTYTLAVGPLSSNWDRACEAYAQLVGGTVDYGAAHAAKHGHARFGRTYPGLLPELKRGGRVHIIAHSQGGQTARMLVSLLENGSQEEREYAKAHNVSLSPLFEGGHHFVLSVTTIATPHDGTTLVNMVDFTDRFFDLQKAVLKAAAVASNVPYTSQVYDFKLDQWGLRRQPGESFDHYFERLKRSPVWTSTDTARYDLSIPGAEKLNQWVQASPNTYYLSFSTERTHRGALTGNYYPELGMNAFSAVVCAPFLGSYRNEALGIDDRWLENDGIVNTVSMNGPKRGSSDRIVPYDGTLKKGVWNDMGTYNVDHLEVIGVDPNPSFDIRAFYLRLAEQLASLRP”, which “soluble on expression in E. coli” value is on record?
**A.** soluble

**Q.** With “SENDSIELDDVANLMFYGEGQIGTNKQPFMFIFDTGSANLWVPSVNCDSIGCSTKHLYDASASKSYEKDGTKVEISYGSGTVRGYFSKDVISLGDLSLPYKFIEVTDADDLEPIYSGSEFDGILGLGWKDLSIGSIDPVVVELKKQNKIDNALFTFYLPVHDKHVGYLTIGGIESDFYEGPLTYEKLNHDLYWQIDLDIHFGKYVMQKANAVVDSGTSTITAPTSFLNKFFRDMNVIKVPFLPLYVTTCDNDDLPTLEFHSRNNKYTLEPEFYMDPLSDIDPALCMLYILPVDIDDNTFILGDPFMRKYFTVFDYEKESVGFAVAKNL” as the sequence, how does the “soluble on expression in E. coli” value read?
**A.** soluble

**Q.** With “MSTSSRTPSPSSLSACGGPSSSTTTAHPSSSPKSKTSVTSSRSDTDSVIPEHKPSSASSFSIGRLLFRSSGSSNSTKRDSVDSGKDDETGRSPATSRPGSPNPGGDKSPQMSTSRRLAGFASRSIRKSQWRLFKHRTFFGSQRSSMKKNQLQLPRLTLRHPSIDSSAMPLQLDVDENASGEGSDDFLQIRRSTQRRWTDSDTTGRLRDSRDSSDFNDSHDTLDIAGTSAHGVADSSSHHHHNYSMTAPVSPNVPLSASSSHSEGWKYSSQKLLWKLKPKYAYSHASSTSSSTDSAWKSLDSMTWRSVDGAEVVLRGARLENLSEIERSALQLLAAQRLTKMLPGVNLGKPKALRQKRQKLVKSNRTPTVADVQRRASGTPMPEEKRVFGVSLAMCMLNEKRLDQESRCRSLDDSTVIMLNKSKAKPTKSEPEMMSHTMPEDRKWLYPSTQNLYPTSTSNPSSPSPIMGSAPPTGSILPSANLLSAEPTTCEPQQVTGRFLKKQRPASASFSCSLDANIDDVDPHALQVPKIVENCTQYLMTYGLTQVGLFRVAGNTKRCRQLRNALEKVGGGAVINDNMVENTTSHDVATLLKEYFRDLPQSLLPGEHYSAYIGAAKLNVDERIEAIRLLFALLVSPILDTLFVLLKFLHEVSCHSQDRHDEDGELLSGNKMDARNLATIFAPSILRVDHDKLHETLAENEHQVIIVETMISNVEEIFKIPKELQCKIYTKLRETEPDRLDRILNHLSKMDSHESHPGVLLSPFPATLEEDSSPRHHRHGDHSHIGRQSPLARELTTNGKVKVQSQRSGSWPFSLTKTQTSPSRPEGQHFFPADSQDGPGPSHSHHDPSTSGTTMSATTTPGPGRKTDFSMKAADDSGRDSEFCSDELTFGTISQPETARERSVTMSTACGSPSTSNSKKTPMMASLQGATTSKSVDARSPSRERVDIRSAARSSAAAARRRLRNVVRAFRFTSMTRSTPDIAQSS” as the sequence, how does the “soluble on expression in E. coli” value read?
**A.** not soluble

**Q.** With “MGSDKIHHHHHHMETFHLTRNEMATLLLSLRGWNTKKPLGILQEAWAKSHKKDIESGQSVTAFITTALSPIFEKLIKIDDTDVGFSLNEIVALGNQIENTSFSVTAMQNWVKRDIKEMIGSPQKGKKYSIEQAALLFIVEDLKTALDFESIRKLLRLIVNDPADRSDDLINPVHLYGAYSSLFEELNQGNCLQLNATDTIHTIENIVKERADKIASKFDQVNNEQREAIRNAIIIATLSVHTAYVQMLAKRYVTATLFLQNLDVKP” as the sequence, how does the “soluble on expression in E. coli” value read?
**A.** not soluble

**Q.** For “MEGRIPPHSLEAEQSVLGAILLDYQVLDEIEGLLPTPEAFYAEAHRKIYAAMQGLRAEGSPVDLVTLAEELSRRGELDGVGGISYLMQLSEATPTAAYAEHYARIVAEKWTLRRLIQAAGEAMRLAYEEAGSLDEILDQAGKRILEVALAQTEVEARSMRELVHETFEHIEALFQNKGETAGVRTGFKELDQLIGTLAPGSLNIIAARPAMGKTAFALTIAQHAALKEGVGVGIYSLEMPAAQLVLRMMCSEARIDMNRVRLGQLSDRDFSRLVDVAGRLSEAPIFIDDTPDLTLMELRARARRLRSQHNVGLIIIDYLQLMSGPGGGQKGENRQQEIAAISRGLKALARELGVPVIALSQLSRAVEARPNKRPMLSDLRESGSIEQDADLVMFIYRDEYYNPHSEKAGIAEIIVGKQRNGPTGTVELQFHAQHVRFNDLAKEP”, which “soluble on expression in E. coli” value is on record?
**A.** soluble

**Q.** For “MSDPLTAQEQHKRRQAVRELMPRTPFIGGLGIVFERYEPDDVVIRLPFRTDLTNDGTYFHGGVIASVMDTAGAAAAWSNHDFDRGTRAATVAMSIQYTGAAKRCDLLCHARTARRRKELTFTEITATDPDGNIVAHAVQTYRIV”, which “soluble on expression in E. coli” value is on record?
**A.** not soluble

**Q.** For “MTTQIELGDITVDVVLKDIKNIHLSVYPPNGRVKISAPLRMDIDTIRVFAISRLGWIKQQRKKFQEQERETPREYLDLESHYVWGKRYLLKVIEVNEAPSVELKHSKMILRVRPGTDDKKRQSIIDAWYREQLKKAIPPLIARWEPLLGVKVERFFVQRMRTKWGSCNHKARNIRLNTELAKKPEECLEYTIVHEMAHILEPTHNSHFITLMDQFMPKWQFCRDRLNQLPVRHEDWIYLEHHHHHH”, which “soluble on expression in E. coli” value is on record?
**A.** soluble

**Q.** Which “soluble on expression in E. coli” value does the source give for “MARLLEEHGFETKTNVIVQGNCVEQEIDVVAERDGERYMIECKFHNIPVYTGLKEAMYTYARFLDVEKHGFTQPWIFTNTKFSEEAKKYAGCVGIKLTGWSYPEKEGIEVLLESKGLYPITILRIDKEVLDELVRAGLVFCRDVVSAGEEKLREIGLSAKKAREVIAEAKKVIG” here?
**A.** soluble

**Q.** With “MGSDKIHHHHHHMAQQPLAYRMRPQRLEDIVGQQDLVAPGKIIARMVAAKLLSSMILYGPPGTGKTSIASAIAGSTQYAFRKLNAATDSKKDLQIVAEEAKMSGTVILLLDEIHRLDKTKQDFLLPHLESGRIVLIGATTENPYININPAIRSRTQIFEVHPLTPDDIKIALHRALTDTENGLGKLPIDLNTEALNFIAGATNGDLRSALNGLELAAQSTPAANDDRIHITLAVAEACFQRKALMGDKDGDAHYDVISAFQKSIRGSDTDAALHYLAQLVAAGDLPAICRRLMVIAYEDIGMANLPAAARTVQAVQAAQQLGLPEGRIPLADAVIELCLSPKSDSGISAIDAALADVLNGHNGAVPDHLKDAHYAGAKKLGHGTDYKYPHNFPNDWVKQQYLPDTLKNAEYYHPKTNGRFETQLAQQYRRLLTANRH” as the sequence, how does the “soluble on expression in E. coli” value read?
**A.** not soluble

**Q.** Which “soluble on expression in E. coli” value does the source give for “DVVVTQTPLSLPVSLGDQASISCRSSEVIVTRNGYTPIEWYLQKPGQSPKLLIYKAYKRFPGVPDRFSGSGSGTDFTLKISRVEAEDLGVYYCFDGSTVPPKFGGGTKLEIKRADAAPTVSIFPPSSEQLTSGGASVVCFLNNFYPKDINVKWKIDGSERQNGVLNSWTDQDSKDSTYSMSSTLTLTKDEYERHNSYTCEATHKTSTSPIVKSFNRDEC” here?
**A.** soluble

**Q.** Which “soluble on expression in E. coli” value does the source give for “MINIYYNVEPLRSNEEITDFVNKARNGTHGERNALLILIGLNTGLRMSDILNLKVGQIRYHDIVHITEKKTKKRRVILLTRLRPQINHYIKDLPDNEYLFTNRQHQPLSVNAVYKLFQTIARKMHRTDIGTHTLRKTFGYHYYQQTHDIGTLMMIFNHSNEAITKRYIGLNQDVILKQMAGFQLGLEYEKATNMR” here?
**A.** not soluble

**Q.** For “VPLPVPDFTASPMTISVGESVQFQDQTTNNPTNWEWTFEGGQPAMSTEQNPLVSYSHPGQYDVTLKVWNASGSNTITKEKFITVNAVMPVAEFVGTPTEIEEGQTVSFQNQSTNATNYVWIFDGGTPATSEDENPTVLYSKAGQYDVTLKAISASGETVKTKEKYITVKKAPVPA”, which “soluble on expression in E. coli” value is on record?
**A.** not soluble
